This note sets out measurements from PMC5367461 (Biochemical and biophysical research communications, 2017).

Series [1] deals with the molecule itself. Put plainly: SDS-PAGE with/without BME.
The target of series [2] is T1, PDZ-RhoGEF PDZ domain (residues 41-123), human (human, UniProt O15085 41-123).
T1 sequence (looked up): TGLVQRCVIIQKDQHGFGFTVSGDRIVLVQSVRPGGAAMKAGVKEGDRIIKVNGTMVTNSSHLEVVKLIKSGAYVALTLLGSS
Put plainly: crystal structure.

B1: rPDZ-CXCR2 fusion protein: human PDZ-RhoGEF PDZ (residues 41-123) with the C-terminal extension TSTTL of human CXCR2 (other)
chain: TGLVQRCVIIQKDQHGFGFTVSGDRIVLVQSVRPGGAAMKAGVKEGDRIIKVNGTMVTNSSHLEVVKLIKSGAYVALTLLGSSTSTTL
For B1, the stoichiometry N – broadly, a count of units in the complex or per binding partner – in series [1] amounted to 2.

B2: CXCR2 C-terminal PDZ binding motif TSTTL (residues 356-360 of human CXCR2) (peptide)
peptide: TSTTL
On to B2, for which the binding result in series [2] is on record as “binds”.
